Experiments:
[1] = biological target: E1-beta subunit of S. avermitilis BCKDH (Streptomyces avermitilis)
[2] = biological target: E1-beta of plasmid pCD705, with the C-terminal part of the E1-beta open reading frame in the wrong orientation (Streptomyces avermitilis)

- E1 BCKDH specific activity [1]: 13.7 pmol/min/mg
- E1 BCKDH specific activity [2]: 0.5 pmol/min/mg
Substance: E1-alpha subunit of S. avermitilis BCKDH (enzyme)
